Source: the nanobody polyreactivity screen of Harvey et al. (2022)

Assay: yeast display, Sf9 membrane polyspecificity reagent, FACS + sequencing; frameworks hold sequencing errors
How it was run: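 Synthetic nanobody libraries on Saccharomyces cerevisiae BJ5465 were galactose-induced for 36–48 hours, stained 1 hour at 4 °C with 10% biotinylated, detergent-solubilized Sf9 membrane reagent and enriched on streptavidin microbeads. FACS then separated cells into low and high (top ~1%) gates by anti-HA (expression) and streptavidin (reagent binding) fluorescence. Genes were colony-PCR amplified, MiSeq 2 × 250 sequenced and CDR-length filtered. A clone's polyreactivity label is that of its gate of origin.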

Row | Sequence | polyreactivity (PSR sort gate)
1 | HVQLVESGGGLVQAGGSLRLSCAASGGTFGRYARGWYRQAPGKERELVAAISSGGSTNYADSVKGRFTISRDNAKYTVYLLMNSLKPEDTAVYYCAADGPSGVRQYDYWGQGTQVTVSS | low polyreactivity
2 | HVQLVESGGGLVQAGGSLRLSCAASGIIFRYKALGWYREAPGKERELVAAISVSGGSTYYADSVKGRFTISRDNAKNTVDLQMNSLKPEDTAVDYCAALLYRYGVHQAEHDYWGQGTQVTVSS | high polyreactivity
3 | HVQLVESGGGLVQAGGSLRLSCAASGLTYPRYTMGWYRQAPGKESELVAAISSSTGTTNYADSVKGRFTISRDNAKINVYLQMYSLKPEDTAVYYCAAGGSLYAYGYRSRYGYWGQGTQVTVSS | low polyreactivity
4 | HVQLVESGGGLVQAGGSLRLSCAASGNICYGYAMGGYRQAPGKERELVARINWSGSRTYYADSVKGRFTISRDNAKNTVYLQMNSLKPDDTAVYYCNTSTSRVPGNGDYWGQGTQVTVSS | high polyreactivity
5 | HVQLVESGGGLVQAGGSLRLSCAASGNTFTEYAMGWYRQAPGKERELVASITGSGGSTYADSVRGRFTISRDNAKNTVYLQMNSLKPEDTAVYYCAKDPRYEYVGSEYGYWGQGTQVTVSS | low polyreactivity
6 | HVQLVESGGGLVQAGGSLRLSCAASGRIFGYYAIGWYRQATRKERELVAAITINGRRTYYADSVKGRFTISRDNAKNTVYLQMKSLKPEDTAVYLCTATSRYNRLGYWGQGTQVSVSS | high polyreactivity
7 | HVQLVESGGGLVQAGGSLRLSCAASGRIFRKYAMGWYRQAPGKERELVAVITGSAGSTYYADSVKGRFTISRDNAKNTVYLQMNSLKPEDTAVYYCAKVSTSWDYGIYPFDEGYYWGQGTKVTVSS | low polyreactivity
8 | HVQLVESGGGLVQAGGSLRLSCAASGRISDRYAMGWSRQAPGKEREFVAAISWSGASTYYADSVKGRFTISRDNAKNTVYLQMNSLKAEDTAVYYCAARRRHKYDYWGQGTQVTVSS | high polyreactivity
9 | HVQLVESGGGLVQAGGSLRLSCAASGRNYYTYTMGRSRQAPGKEKQLVATITVGTRTNYADSVKGRFTISRDNAQNTVYLQMNSLKRVDTAVYYCNAEWSSKRFTGDDYWGQGTQVTVSS | low polyreactivity
10 | HVQLVESGGGLVQAGGSLRLSCAASGRTFGIYAMGWYRKAPGKERELVAAITGRGGSTHYADSVKGRFTISRDNAKNTVYLQMNSLKPEDTAVYYCAADYRYNRGITSNKDYDYWGQGTQVTVSS | low polyreactivity
11 | HVQLVESGGGLVQAGGSLRLSCAASGRTFIYNAMGWYRQAPGKEREFVAANTWSGATTRYADSVKGRFTISRDNAKNTVYLEMNSLKPEDTAVYYCAKGGFYYYGWRSSMDYWGQGTQVTVSS | high polyreactivity
12 | HVQLVESGGGLVQAGGSLRLSCAASGRTFRLYAMGRYRQATGKEMELVARIRWRGGTTYFADSVKGRFTISRDNAKNTVYLQMNRLKPEDTAVYYCAARAYPTWRTYYYCGQGTQVTVSS | high polyreactivity
13 | HVQLVESGGGLVQAGGSLRLSCAASGSIFDSYVMGWYRQAPGTERELVAAITYSGGSTYADSVKGRFTISRDNAKNTVYLQMNSLKPEDTAVYYCAAASYFYLYLLEDYWGQGTQVTVSS | low polyreactivity
14 | HVQLVESGGGLVQAGGSLRLSCAASGSIFVLNAMGWYRQAPGKERELVAAITNVGSTYYADSVKGRFTISRDNAKNTVYLQMNSLKPEDTAVYYCNADPGEVLVGYDYWGQGTQVTVSS | low polyreactivity
15 | HVQLVESGGGLVQAGGSLRLSCAASGSIFYGNTMGWYRQAPGKEREFVAAINKSDDSTYYADSVKGRFTISRDNAKNTVYLQMNSLKPEDTAVYYCWGPGTQVTVSS | low polyreactivity
16 | HVQLVESGGGLVQAGGSLRLSCAASGSIYALYDLGRYRQAPGKERELVASITGSGGNTYYADSVKGRFTISRDNAKNTVYLQMNSLKPEDTAVYYCAADFRYAGYSYDYWGQGTQVSVSS | low polyreactivity
17 | HVQLVESGGGLVQAGGSLRLSCAASGSTCRYYARGWYRQAPGKERELGAAISGRGARTYYADSVKGRFTISRDNAKNTVYLQMNSLKPEDTAVYYCAAVGYRYRHSRYYWGQGTQVTVSS | high polyreactivity
18 | HVQLVESGGGLVQAGGSLRLSCAASGSTFAGNAMGWYRQAPGKERELVAAITFSGGRTDYADSVKGRFTISRDNAKNTVYLQMNSLKPEDTAVYYCAAPADDTVHYQNYYWGQGTQVTVSS | low polyreactivity
19 | HVQLVESGGGLVQAGGSLRLSCAASGSTFGRYVMGWHRQAPGKERELVAAISKNAGSTYYADSVKGRFTISRDNAKNTVYLKMASLKPEDTAVYYCAADWRTKGYDSLGQGTQVTVSS | high polyreactivity
20 | HVQLVESGGGLVQAGGSLRLSCAASGSTFSGYAMGWYRQAPGKERELVAAISSSGGSTYYADSVKGRFTISRDNAKNTVYLQMNSLKPEDTAVYYCNADEYRGTSTEFEYWGQGTQVTVSS | high polyreactivity
21 | HVQLVESGGGLVQAGGSLRLSCAASGTFYKNAMGWYRQAPGKERELVAAISWRGGRTYADSVKGRFTISRDNAKNSVYLQMNSLKPEDTAVYYCNKRFYPEHYYWGQGTQVTVSS | high polyreactivity
22 | HVQLVESGGGLVQAGGSLRLSCAASGYTFVPYAMGWYRQAPGKERELVAAISSSGGDTYYADSVKGRFTISRDNAKNTVYLQMNSLKPEDTAVYYCNTGVYVWQYWYYGFDYWGQGTQVTVSS | low polyreactivity
23 | HVQLVESGGGLVQAGGSLRLSCAHSGIIFRTNAMGWYRQAPGKEREFVAAISAGATRKYYADSVKGRFTISRDTAKNTVYLQMNSLKPEDTAVYYCAAASGYDYWGQGTQVTVSS | high polyreactivity
24 | HVQLVESGGVLVQAGGSLRLSCAATGSIFRNNAMGWYRQAPGKERDLVAAISSSGGSTFYADSVKGRFTISRDNAKNTVYLQMNSQNPEDTAVYYCAARVRSELIKRYDWGQGTQVTVSS | high polyreactivity
25 | HVQLVESGRGLVEAGGSLRLSCAAYGLGCTVNAMVWYIQAPGTERELVARIVWPGITYADSVKGRFTISLDNAMNTVYLQMNSQKPEDTAVYYCAAVWLHHSYYAKYDYWGQRTQVTVSS | low polyreactivity
26 | HVQLVETVGGLVQAGGSLRLSCAASGSNFDPNAMGWYRQAPVKERELVAAISWSGGSTYYADSVKGRFTISRDNAKNNVYLQMHSLKPEDTAVYYCNAQFYDSYSYTNDYWGQGTQVTVSS | low polyreactivity
27 | HVQVVESGGGLVQEGGSLRLICAASGYLFAYYAMGWFRQAPGKERELVAPIRSGGSTNYADSVKGRFTISRDNAKNTVYLQMNSLKPEDTAVYYCAKGDRRWTLCRPDYDYWGQGTQVTVAS | low polyreactivity
28 | IIQAGGSLRLSCAASVRTFSGYAMGWYRQAPGKERELIADITSGGSTYYADSVKGRFTISRDNAKNTVYLQMNSLKPEDTAVFYCCRDDRLAGDYWGQGTQVNVSS | low polyreactivity
29 | KLQLVESGRGLVQEGGSLRLSCAASGSTFGANAMGWYRHAPGKASEFVAAISRSGVRTYYADSVKGRFTISRDNAKNTVYLQMNSQKPEDTAVYYCAAYGYWWTYTRDDYWGQGTQGTVSS | low polyreactivity
30 | KVHLVESGGGLVQAGGSLRLSCPAAGFTLDQYAMGWYRQAPGKEMELVAVITSGVNTYYADSVKGRFTISRDNAKNTVYLQMNSLKPEDTAVYYCAKDVCDPFYDPFEYWGQGTQVTVSS | low polyreactivity
